From doi:10.1101/646075 (bioRxiv, 2019)
Where two headings read alike, the source gives them in different places. One block for each molecule: values may come before it.

Columns and labels:
[1] = molecular target: apo-transferrin (iron-unbound transferrin) (human) (UniProt P02787); assay: SPR
[2] = molecular target: apo-transferrin (iron-unbound transferrin) (human) (UniProt P02787)
human α-thrombin (human) = human α-thrombin (human) (UniProt P00734)
[3] = molecular target: T1, apo-transferrin (iron-unbound transferrin) (human, UniProt P02787 20-698); assay: SPR
[4] = molecular target: T1, apo-transferrin (iron-unbound …)
[5] = molecular target: T1, apo-transferrin (iron-unbound …); assay: SPR; remark: listed apart in the source
[6] = molecular target: T1, apo-transferrin (iron-unbound …); assay: SPR; remark: listed apart in the source

Molecule: FXII (natural protein)
Kd [1]: 40 nM | koff [1]: 0.0012 s⁻¹ | kon [1]: 30000 M⁻¹ s⁻¹

Molecule: apo-transferrin (iron-unbound transferrin) (from UniProt P02787 20-698) (natural protein)
enzymatic activity of thrombin on a chromogenic substrate, Tf at 0.2, 1 and 5 μM (human α-thrombin (human)): 1.8 fold

B1: TH16 (peptide)
peptide: RIGKHSRTRYERNIEK
Kd [3]: 97 nM | koff [3]: 0.0003 s⁻¹ | kon [3]: 3100 M⁻¹ s⁻¹

B4: FX18 (peptide)
peptide: RRNHSCEPCQTLAVRSYR
Kd [3]: 143 nM | koff [3]: 0.0004 s⁻¹ | kon [3]: 2800 M⁻¹ s⁻¹

Next, values leading:

stoichiometry N (Tf per thrombin) [2]: 1 | Kd [1]: 7.7 nM
Molecule: human α-thrombin (from UniProt P00734) (enzyme)

stoichiometry N [4]: 1 Tf per FXIIa | Kd [5]: 13.9 nM | koff [5]: 0.0025 s⁻¹ | kon [5]: 180000 M⁻¹ s⁻¹
B2: human α-FXIIa (enzyme)
chain 1: IPPWEAPKEHKYKAEEHTVVLTVTGEPCHFPFQYHRQLYHKCTHKGRPGPQPWCATTPNFDQDQRWGYCLEPKKVKDHCSKHSPCQKGGTCVNMPSGPHCLCPQHLTGNHCQKEKCFEPQLLRFFHKNEIWYRTEQAAVARCQCKGPDAHCQRLASQACRTNPCLHGGRCLEVEGHRLCHCPVGYTGAFCDVDTKASCYDGRGLSYRGLARTTLSGAPCQPWASEATYRNVTAEQARNWGLGGHAFCRNPDNDIRPWCFVLNRDRLSWEYCDLAQCQTPTQAAPPTPVSPRLHVPLMPAQPAPPKPQPTTRTPPQSQTPGALPAKREQPPSLTRNGPLSCGQRLRKSLSSMTR
chain 2: VVGGLVALRGAHPYIAALYWGHSFCAGSLIAPCWVLTAAHCLQDRPAPEDLTVVLGQERRNHSCEPCQTLAVRSYRLHEAFSPVSYQHDLALLRLQEDADGSCALLSPYVQPVCLPSGAARPSETTLCQVAGWGHQFEGAEEYASFLQEAQVPFLSLERCSAPDVHGSSILPGMLCAGFLEGGTDACQGDSGGPLVCEDQAAERRLTLQGIISWGSGCGDRNKPGVYTDVAYYLAWIREHTVS

stoichiometry N [6]: 4 apo-Tf per fibrinogen
B3: fibrinogen (complex)
chain 1: ADSGEGDFLAEGGGVRGPRVVERHQSACKDSDWPFCSDEDWNYKCPSGCRMKGLIDEVNQDFTNRINKLKNSLFEYQKNNKDSHSLTTNIMEILRGDFSSANNRDNTYNRVSEDLRSRIEVLKRKVIEKVQHIQLLQKNVRAQLVDMKRLEVDIDIKIRSCRGSCSRALAREVDLKDYEDQQKQLEQVIAKDLLPSRDRQHLPLIKMKPVPDLVPGNFKSQLQKVPPEWKALTDMPQMRMELERPGGNEITRGGSTSYGTGSETESPRNPSSAGSWNSGSSGPGSTGNRNPGSSGTGGTATWKPGSSGPGSTGSWNSGSSGTGSTGNQNPGSPRPGSTGTWNPGSSERGSAGHWTSESSVSGSTGQWHSESGSFRPDSPGSGNARPNNPDWGTFEEVSGNVSPGTRREYHTEKLVTSKGDKELRTGKEKVTSGSTTTTRRSCSKTVTKTVIGPDGHKEVTKEVVTSEDGSDCPEAMDLGTLSGIGTLDGFRHRHPDEAAFFDTASTGKTFPGFFSPMLGEFVSETESRGSESGIFTNTKESSSHHPGIAEFPSRGKSSSYSKQFTSSTSYNRGDSTFESKSYKMADEAGSEADHEGTHSTKRGHAKSRPVRGIHTSPLGKPSLSP
chain 2: QGVNDNEEGFFSARGHRPLDKKREEAPSLRPAPPPISGGGYRARPAKAAATQKKVERKAPDAGGCLHADPDLGVLCPTGCQLQEALLQQERPIRNSVDELNNNVEAVSQTSSSSFQYMYLLKDLWQKRQKQVKDNENVVNEYSSELEKHQLYIDETVNSNIPTNLRVLRSILENLRSKIQKLESDVSAQMEYCRTPCTVSCNIPVVSGKECEEIIRKGGETSEMYLIQPDSSVKPYRVYCDMNTENGGWTVIQNRQDGSVDFGRKWDPYKQGFGNVATNTDGKNYCGLPGEYWLGNDKISQLTRMGPTELLIEMEDWKGDKVKAHYGGFTVQNEANKYQISVNKYRGTAGNALMDGASQLMGENRTMTIHNGMFFSTYDRDNDGWLTSDPRKQCSKEDGGGWWYNRCHAANPNGRYYWGGQYTWDMAKHGTDDGVVWMNWKGSWYSMRKMSMKIRPFFPQQ
chain 3: YVATRDNCCILDERFGSYCPTTCGIADFLSTYQTKVDKDLQSLEDILHQVENKTSEVKQLIKAIQLTYNPDESSKPNMIDAATLKSRKMLEEIMKYEASILTHDSSIRYLQEIYNSNNQKIVNLKEKVAQLEAQCQEPCKDTVQIHDITGKDCQDIANKGAKQSGLYFIKPLKANQQFLVYCEIDGSGNGWTVFQKRLDGSVDFKKNWIQYKEGFGHLSPTGTTEFWLGNEKIHLISTQSAIPYALRVELEDWNGRTSTADYAMFKVGPEADKYRLTYAYFAGGDAGDAFDGFDFGDDPSDKFFTSHNGMQFSTWDNDNDKFEGNCAEQDGSGWWMNKCHAGHLNGVYYQGGTYSKASTPNGYDNGIIWATWKTRWYSMKKTTMKIIPFNRLTIGEGQQHHLGGAKQAGDV
